Patent US7358353B2, “Nucleic acid and corresponding protein named 158P1D7 useful in the treatment and detection of bladder and other cancers” (Agensys, Inc., priority 2000, dated 2008)

Target: T1, 158P1D7 protein (Homo sapiens, UniProt Q9H5Y7)
T1 construct: from tissue; host or cells: formalin fixed, paraffin embedded tumor tissue from patients (bladder transitional cell carcinoma, breast ductal carcinoma, lung carcinoma)
Assay: Immunohistochemistry of cancer patient specimens with anti-158P1D7 MAb (Table LVIII)
From the text: FIG. 36. Detection of 158P1D7 protein by immunohistochemistry in various cancer patient specimens. Tissue was obtained from patients with bladder transitional cell carcinoma, breast ductal carcinoma and lung carcinoma. […] (C) breast infiltrating ductal carcinoma, moderately differentiated, (D) breast infiltrating ductal carcinoma, moderate to poorly differentiated, (E) lung squamous cell carcinoma, (F) lung adenocarcinoma, well differentiated.
The sections were dewaxed, rehydrated and treated with antigen retrieval solution (Antigen Retrieval Citra Solution; BioGenex, 4600 Norris Canyon Road, San Ramon, Calif., 94583) at high temperature. Sections were then incubated in mouse monoclonal anti-158P1D7 antibody, M15-68(2)22, for 3 hours. The slides were washed three times in buffer and further incubated with DAKO EnVision+™ peroxidase-conjugated goat anti-mouse immunoglobulin secondary antibody (DAKO Corporation, Carpenteria, Calif.) for 1 hour. The sections were then washed in buffer, developed using the DAB kit (SIGMA Chemicals), counterstained using hematoxylin, and analyzed by bright field microscopy. […] 49.3% of bladder transitional cell carcinoma samples tested were positive for 158P1D7 (Table LVIII).

[1] = Breast Carcinoma patient specimens
[2] = Lung Carcinoma patient specimens

158P1D7 protein
% No. Positive (Bladder TCC patient specimens): 49.3%
Number Positive (Bladder TCC patient specimens): 35
% No. Positive [1]: 90.9%
Number Positive [1]: 11
% No. Positive [2]: 23.1%
Number Positive [2]: 26
